Measured values reported in patent publication US20030135878.

Biological target: wheat thioredoxin h (WTRXh), 13.5-kDa protein encoded by the 384-bp wtrxh fragment (UniProt O64394)
Sequence (O64394 whole entry, the tested form may be a part): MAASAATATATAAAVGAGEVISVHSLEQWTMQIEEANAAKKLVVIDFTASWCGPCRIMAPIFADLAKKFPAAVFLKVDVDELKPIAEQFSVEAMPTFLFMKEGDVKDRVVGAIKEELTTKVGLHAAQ

| Substance | Relative reduction of albumin-fraction proteins (mBBr fluorescence/protein), Homozygous/Null Segregant, +NADPH/NTR (fold (Homozygous/Null Segregant)) | reduction of DTNB [5,5'-dithiobis(2-nitrobenzoic acid)] via NTR and thioredoxin |
| --- | --- | --- |
| Arabidopsis thaliana NTR (NADP-thioredoxin reductase) | 3.91 | – |
| barley NTR (NADP-thioredoxin reductase) | – | confirmed the ability of barley NTR to reduce wheat thioredoxin h (data not shown) |
